Patent publication US20200332015A1 (NAMAB THERAPEUTICS, published 2020)

Tests used:
[1] = biological target: T1, human CD137 expressed on Jurkat cells (human, UniProt Q07011 24-255); test: flow cytometry on CD137 expressing Jurkat cells, protein L-APC
T1 construct: Also used here for CD137 on T cells of human PBMC in the IL-2 assays; also called Jurkat CD137 cells (clone C6, 1); membranous CD137
Method: (§1) Binding potency affinity to human CD137 expressing cells was also determined for selected scFvs. 50,000 CD137 expressing Jurkat cells (or as reference cell line Jurkat NFAT) were distributed to round bottom non-tissue culture treated 96 well plates. Cells were washed twice with 100 μl PBS by centrifugation at 400×g for 5 min. […] After 1 h incubation at 4° C. on a nutating mixer, cells were washed 3 times with 100 μl staining buffer and centrifugation steps of 5 min at 400×g. […] Plates were incubated 1 h at 4° C. on a nutating mixer, then washed 3 times with 100 μl of staining buffer and resuspended in a final volume of 50 μl of staining buffer. Finally, APC signal of 20,000 events per well was analyzed by flow cytometry using a Novocyte flow cytometer system (ACEA Bioscience).

[2] = biological target: T1, human CD137 expressed on Jurkat cells; test: flow cytometry on CD137 expressing Jurkat cells
Method: as §1

[3] = biological target: T2, cynomolgus monkey Fc-tagged CD137 (R&D Systems, cat. 9324-4B-100) (cynomolgus monkey, UniProt A9YYE7 24-186); test: SPR T200, Fc-tagged antigen captured, scFv analyte
T2 construct: also called cynomolgus CD137-Fc chimeric protein
T2 sequence (A9YYE7 entry or part of it): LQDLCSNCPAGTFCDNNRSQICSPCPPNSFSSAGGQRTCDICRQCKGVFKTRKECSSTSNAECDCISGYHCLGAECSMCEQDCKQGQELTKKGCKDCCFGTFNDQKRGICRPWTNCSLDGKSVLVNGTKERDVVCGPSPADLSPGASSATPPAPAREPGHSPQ
Method: (§2) Affinity of the humanized scFvs to human CD137 was determined by SPR analysis on a T200 device (Biacore, GE Healthcare). […] After each analyte injection cycle, the anti-human Fc-specific IgG was regenerated and new antigen was captured. The scFvs were injected as analyte using a dose response multi-cycle kinetic assay over the captured CD137 with concentrations of the analyte ranging from 0.19 to 45 nM (three-fold dilutions steps) diluted in running buffer. Association and dissociation time were set to 300 s and 720 s, respectively. Obtained sensorgrams were fitted using the 1:1 binding model.
Cross-reactivity to cynomolgus CD137 was measured with cynomolgus monkey Fc-tagged CD137 (R&D Systems, cat. 9324-4B-100) in a similar assay as used to measure binding to human CD137.

[4] = biological target: T3, mouse Fc-tagged mouse CD137 (R&D Systems, cat. 937-4B-050) (mouse, UniProt P20334 24-187); test: SPR T200, Fc-tagged antigen captured, scFv analyte
T3 construct: also called mouse CD137-Fc chimeric protein
T3 sequence (looked up): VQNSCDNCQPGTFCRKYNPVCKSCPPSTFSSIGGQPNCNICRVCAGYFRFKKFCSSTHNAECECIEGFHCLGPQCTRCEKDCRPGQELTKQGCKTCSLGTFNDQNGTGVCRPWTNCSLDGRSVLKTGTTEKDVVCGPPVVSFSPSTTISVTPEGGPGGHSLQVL

[5] = biological target: T4, Fc tagged human CD137 (R&D Systems, cat. 838-4B-100) (human, UniProt Q07011 24-186); test: SPR T200, Fc-tagged antigen captured, scFv analyte
T4 construct: also called CD137 Fc chimera; human CD137-Fc chimeric protein
Method: as §2

[6] = biological target: T5, human Fc-tagged OX40 (Acro-Biosystems, cat. OXO-H5255) (human, UniProt P43489 29-216, limits assumed); test: SPR T200, Fc-tagged OX40 captured, scFv analyte
T5 construct: also called human OX40
T5 sequence (looked up): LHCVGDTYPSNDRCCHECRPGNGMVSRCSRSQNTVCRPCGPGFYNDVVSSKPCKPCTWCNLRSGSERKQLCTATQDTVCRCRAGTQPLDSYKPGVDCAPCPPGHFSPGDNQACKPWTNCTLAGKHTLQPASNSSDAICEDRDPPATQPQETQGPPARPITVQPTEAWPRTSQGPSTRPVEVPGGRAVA
Method: (§3) In addition to cross-reactivity to cynomolgus monkey CD137, selectivity of binding of the anti-human CD137 scFvs to human CD137 and not to other members of the TNFR superfamily, such as CD40 and OX40, is desired. Therefore, binding of selected scFvs to human CD40 and OX40 was tested. Binding of scFvs to human Fc-tagged CD40 (AcroBiosystems, cat. CDO-H5253) and human Fc-tagged OX40 (Acro-Biosystems, cat. OXO-H5255) was determined by SPR analysis on a T200 device (Biacore, GE Healthcare). In this experiment, Fc-tagged CD40 and OX40 were captured using the Human Antibody Capture kit from GE healthcare (cat. BR-1008-39). After each analyte injection cycle, the anti-human Fc-specific IgG was regenerated and new antigen was captured. The scFvs were injected as analyte using a high concentration of 180 nM of the analyte diluted in running buffer. Association and dissociation time were set to 300 s and 720 s, respectively. Obtained sensorgrams were fitted using the 1:1 binding model.

[7] = biological target: T6, human Fc-tagged CD40 (AcroBiosystems, cat. CDO-H5253) (human, UniProt P25942 21-193); test: SPR T200, Fc-tagged CD40 captured, scFv analyte
T6 construct: also called human CD40
T6 sequence (P25942 21-193 limits assumed): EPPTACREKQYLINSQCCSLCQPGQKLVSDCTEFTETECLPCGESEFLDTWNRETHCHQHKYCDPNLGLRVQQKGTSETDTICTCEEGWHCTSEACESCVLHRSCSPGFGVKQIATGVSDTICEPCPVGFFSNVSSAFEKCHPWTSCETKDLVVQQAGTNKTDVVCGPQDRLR
Method: as §3

B1: PRO1352 (38-02-A04 sc13, CDR graft with interdomain disulfide, VH3, scFv) (scFv)
scFv: DIQMTQSPSSLSASVGDRVTITCQASQSINNVLAWYQQKPGKAPKLLIYRASTLASGVPSRFSGSGSGTDFTLTISSLQPEDFATYYCQSSYGNYGDFGCGTKVTVLGGGGGSGGGGSGGGGSGGGGSEVQLVESGGGLVQPGGSLRLSCAASGFSFSNSYWICWVRQAPGKCLEWIGCTFVGSSDSTYYANWAKGRFTISRDNSKNTVYLQMNSLRAEDTAVYYCARHPSDAVYGYANNLWGQGTLVTVSS
notes: VL-linker-VH; carries VH G51C and VL T141C (AHo numbering); also called the scFv based on 38-02-A04 clone
EC50 [1]: 1.1 µg/mL | Maximum binding (relative to urelumab) [2]: 10% | rel. EC50 (EC50, urelumab/EC50, scFv) [2]: 0.057 ratio | Kd [3]: 1.47 nM | koff [3]: 0.00102 s⁻¹ | kon [3]: 695000 M⁻¹ s⁻¹ | binding result [4]: no binding | Kd [5]: 1.47 nM | koff [5]: 0.00103 s⁻¹ | kon [5]: 701000 M⁻¹ s⁻¹ | binding result [6]: no binding (tested: 180 nM) | binding result [7]: no binding (tested: 180 nM)
